Molecular target: T1, PHEX (phosphate-regulating gene with homology to endopeptidase on the X chromosome), endogenous mouse protein (mouse, UniProt P70669 1-749)
T1 construct: Endogenous PHEX of mouse bone extracts (coIP); The same id stands for the endogenous PHEX of mouse MC3T3-E1 cells and of mice in the functional rows; also called bone metallo-endopeptidase PHEX
T1 sequence (looked up): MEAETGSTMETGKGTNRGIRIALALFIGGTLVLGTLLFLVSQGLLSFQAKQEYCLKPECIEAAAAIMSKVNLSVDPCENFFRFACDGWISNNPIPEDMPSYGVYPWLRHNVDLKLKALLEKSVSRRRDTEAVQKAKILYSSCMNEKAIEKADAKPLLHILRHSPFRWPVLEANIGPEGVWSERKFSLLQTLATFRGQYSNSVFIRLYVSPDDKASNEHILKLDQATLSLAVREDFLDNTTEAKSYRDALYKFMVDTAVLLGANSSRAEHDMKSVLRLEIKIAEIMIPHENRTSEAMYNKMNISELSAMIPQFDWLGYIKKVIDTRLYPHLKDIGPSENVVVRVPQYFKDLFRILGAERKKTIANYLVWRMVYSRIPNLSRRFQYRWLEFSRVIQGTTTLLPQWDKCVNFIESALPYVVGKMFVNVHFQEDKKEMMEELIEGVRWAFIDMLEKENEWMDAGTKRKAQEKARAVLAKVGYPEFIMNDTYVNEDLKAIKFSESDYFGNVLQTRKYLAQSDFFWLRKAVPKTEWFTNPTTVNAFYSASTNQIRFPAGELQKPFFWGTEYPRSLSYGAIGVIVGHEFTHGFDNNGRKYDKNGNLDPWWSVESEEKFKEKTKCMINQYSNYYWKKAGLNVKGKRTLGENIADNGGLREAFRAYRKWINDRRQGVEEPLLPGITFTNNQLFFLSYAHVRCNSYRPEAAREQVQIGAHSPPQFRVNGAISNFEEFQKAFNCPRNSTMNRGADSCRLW
Assay: coIP, anti-PHEX antibody-coated beads, mouse bone extracts, Western blot for DMP1
Protocol: FIGS. 4A-C. (FIG. 4A) PHEX binds to full length DMP1 and cDMP1. Bone protein extracts from WT and DMP1ko/cDMP1Tg were incubated with anti-PHEX antibody-coated beads. […] Negative control ((−) CTR) was obtained from uncoated beads to evaluate non-specific binding. […] The constant of dissociation (KD) between PHEX and the entire DMP1 protein reflecting binding affinity is as strong as the KD obtained previously between rPHEX and the small 19 amino acid MEPE-ASARM peptide. Data are normalized by non-specific binding at baseline and expressed as relative units (RU) of response difference. (FIG. 4C) Dose-dependent binding of rPHEX to rDMP1, represented by quantitation of the SPR sensorgram, confirms binding specificity.
Both PHEX and DMP1 are expressed by osteocytes. The ASARM sequence binds to PHEX. Co-immunoprecipitation (coIP) of PHEX and DMP1 were performed in endogenous bone protein extracts to test the presence of binding between PHEX and cDMP1. Magnetic beads were covalently coated with a PHEX antibody (Ab) and incubated with protein extracts isolated from WT or DMP1ko/cDMP1Tg mice. Detection of DMP1 in the protein pull-downs eluted from the beads was performed by Western Blot analysis using an Ab targeting the C-terminus region (FIG. 4A). […] In the DMP1ko/cDMP1Tg extracts in which full-length DMP1 is not expressed, only cDMP1 fragments were detected. […]

- binding result: binds
B1: full-length DMP1 (dentin matrix protein 1), endogenous mouse protein, ~100 kDa (other, UniProt O55188 17-503, looked up)
chain: LPVARYHNTESESSEERTGDLAGSPPPPTNSESSEESQASPEGQANSDHTDSSESGEELGYDRGQYRPAGGLSKSTGTGADKEDDEDDSGDDTFGDEDNDLGPEEGQWGGPSKLDSDEDSTDTTQSSEDSTSQENSAQDTPSDSKDHDSEDEADSRPEAGDSTQDSESEEQRVGGGSEGESSHGDGSEFDDEGMQSDDPESTRSDRGHARMSSAGIRSEESKGDHEPTSTQDSDDSQSVEFSSRKSFRRSHVSEEDYRGELTDSNSRETQSDSTEDTASKEESRSESQEDTAESQSQEDSPEGQDPSSESSEEAGEPSQESSSESQEGVTSESRGDNPDNTSQAGDQEDSESSEEDSLNTFSSSESQSTEEQADSESNESLSLSEESQESAQDGDSSSQEGLQSQSASTESRSQESQSEQDSRSEEDSDSQDSSRSKEESNSTGSASSSEEDIRPKNMEADSRKLIVDAYHNKPIGDQDDNDCQDGY

From US20170121382A1 (NORTHWESTERN UNIVERSITY, published 2017)
